This note sets out measurements from publication PMC11883000, “Structure-function relationship of ASH1L and histone H3K36 and H3K4 methylation” (Nature Communications, 2025).

The test has as its target Substitution of D2595 or D2584 with alanine (ASH1L PHD finger mutants). Briefly: not stated; wild type and mutants of ASH1LPHD with H3K4me3 peptide (Fig. 3c, Supplementary Figs. 5 and 6); the legend names tryptophan fluorescence, MST or NMR, which for each mutant is marked only in the figure.

Consider “histone H3K4me3 peptide (aa 1-12 of H3) (from UniProt P68431 2-13)”, for which the Kd was in the range of 5 to 7 µM.
